# Test results published in paper PMC3141052.
# Biological target: P domain protein of norovirus VA207 (GII.9), amino acid 222-537 (norovirus VA207 (GII.9))
# Assay: crystal structure; native P protein (P2(1)2(1)2) and its complexes with Le^y or SLe^x tetrasaccharide (P2(1)2(1)2(1)); hanging drop, PEG 3350, 50 mM magnesium formate
substance,measurement,value
"P domain protein of norovirus VA207 (GII.9), amino acid 222-537 (domain or fragment)",stoichiometry N,2
